Assay results from patent publication US8124586 (DYAX, dated 2012).

What was measured:
human plasma kallikrein [1] = biological target: T1, human plasma kallikrein (human, UniProt P03952 20-638); assay: ratio of Ki,app values, reference aprotinin
T1 construct: The active enzyme comes from the zymogen prekallikrein

human plasmin = human plasmin (human, UniProt P00747 97-810, limits assumed); assay: protease inhibition, Ki,app
human plasma kallikrein [2] = biological target: T1, human plasma kallikrein; assay: protease inhibition, Ki,app
[3] = biological target: porcine pancreatic kallikrein (porcine, UniProt P00752 8-246); assay: protease inhibition, Ki,app
human plasma factor XIa = human plasma factor XIa (human, UniProt P03951 19-625); assay: protease inhibition, Ki,app

T1 sequence (P03952 20-638 limits assumed): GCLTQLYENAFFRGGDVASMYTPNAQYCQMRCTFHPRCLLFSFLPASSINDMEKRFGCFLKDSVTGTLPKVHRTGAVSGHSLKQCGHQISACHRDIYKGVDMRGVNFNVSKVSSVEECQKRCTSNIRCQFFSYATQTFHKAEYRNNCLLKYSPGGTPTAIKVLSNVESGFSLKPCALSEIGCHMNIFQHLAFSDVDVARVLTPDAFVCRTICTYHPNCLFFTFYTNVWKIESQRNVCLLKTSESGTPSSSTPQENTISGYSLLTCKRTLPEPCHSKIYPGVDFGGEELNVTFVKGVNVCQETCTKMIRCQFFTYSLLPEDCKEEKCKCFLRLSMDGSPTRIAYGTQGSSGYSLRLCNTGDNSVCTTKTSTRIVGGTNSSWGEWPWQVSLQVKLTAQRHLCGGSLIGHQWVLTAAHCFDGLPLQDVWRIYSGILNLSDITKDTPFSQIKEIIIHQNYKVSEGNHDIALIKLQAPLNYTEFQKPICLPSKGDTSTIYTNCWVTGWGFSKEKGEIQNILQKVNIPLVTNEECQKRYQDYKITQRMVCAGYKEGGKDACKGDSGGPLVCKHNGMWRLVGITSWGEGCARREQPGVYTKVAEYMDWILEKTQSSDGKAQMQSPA
porcine pancreatic kallikrein, sequence (P00752 8-246): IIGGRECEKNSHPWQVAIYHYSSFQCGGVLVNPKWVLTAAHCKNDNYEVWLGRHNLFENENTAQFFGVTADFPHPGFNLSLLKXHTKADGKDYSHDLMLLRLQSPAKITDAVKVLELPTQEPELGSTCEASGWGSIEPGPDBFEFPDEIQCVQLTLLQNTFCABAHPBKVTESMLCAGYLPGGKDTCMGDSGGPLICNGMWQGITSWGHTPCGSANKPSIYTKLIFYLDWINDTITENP
human plasmin, sequence (P00747 97-810 limits assumed): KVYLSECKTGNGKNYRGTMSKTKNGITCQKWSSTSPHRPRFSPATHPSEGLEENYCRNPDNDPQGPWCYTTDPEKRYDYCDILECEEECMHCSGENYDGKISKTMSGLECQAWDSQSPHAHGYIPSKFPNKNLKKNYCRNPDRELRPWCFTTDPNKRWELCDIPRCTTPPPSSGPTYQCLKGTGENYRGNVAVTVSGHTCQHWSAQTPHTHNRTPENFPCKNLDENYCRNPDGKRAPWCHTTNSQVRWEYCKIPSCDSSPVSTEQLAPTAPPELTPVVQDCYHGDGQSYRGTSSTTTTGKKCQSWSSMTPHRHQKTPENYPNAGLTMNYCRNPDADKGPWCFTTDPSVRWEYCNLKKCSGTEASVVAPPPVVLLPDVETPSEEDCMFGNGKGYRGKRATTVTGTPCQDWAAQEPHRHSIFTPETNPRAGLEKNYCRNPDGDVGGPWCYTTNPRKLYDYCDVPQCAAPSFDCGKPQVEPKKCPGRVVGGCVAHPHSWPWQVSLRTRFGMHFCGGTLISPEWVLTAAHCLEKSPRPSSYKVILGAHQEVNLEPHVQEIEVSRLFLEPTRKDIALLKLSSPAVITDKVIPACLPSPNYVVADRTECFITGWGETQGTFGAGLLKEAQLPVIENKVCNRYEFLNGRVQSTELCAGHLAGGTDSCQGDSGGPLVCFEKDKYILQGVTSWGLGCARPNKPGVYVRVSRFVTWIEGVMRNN

B1: PEP-1 KI polypeptide (designed binder)
chain: EAMHSFCAFKADDGPCRAAHPRWFFNIFTRQCEEFIYGGCEGNQNRFESLEECKKMCTRD
notes: Non-naturally occurring Kunitz domain polypeptide from a phage display library; Molecular weight 7,054 Daltons
In the case of B1, the “fold higher affinity (Ki,app) than aprotinin” value (human plasma kallikrein [1]) is reported as 1000 fold, the Ki (human plasmin) is reported as 140 nM and the Ki (human plasma kallikrein [2]) is reported as 0.044 nM. The Ki [3] was 27000 nM and the Ki (human plasma factor XIa) was 10 nM.
